From doi:10.1101/2025.11.08.687396 (bioRxiv, 2025)

B1: UBXN7-SBP (natural protein, human, UniProt O94888 1-489, looked up)
chain: MAAHGGSAASSALKGLIQQFTTITGASESVGKHMLEACNNNLEMAVTMFLDGGGIAEEPSTSSASVSTVRPHTEEEVRAPIPQKQEILVEPEPLFGAPKRRRPARSIFDGFRDFQTETIRQEQELRNGGAIDKKLTTLADLFRPPIDLMHKGSFETAKECGQMQNKWLMINIQNVQDFACQCLNRDVWSNEAVKNIIREHFIFWQVYHDSEEGQRYIQFYKLGDFPYVSILDPRTGQKLVEWHQLDVSSFLDQVTGFLGEHGQLDGLSSSPPKKCARSESLIDASEDSQLEAAIRASLQETHFDSTQTKQDSRSDEESESELFSGSEEFISVCGSDEEEEVENLAKSRKSPHKDLGHRKEENRRPLTEPPVRTDPGTATNHQGLPAVDSEILEMPPEKADGVVEGIDVNGPKAQLMLRYPDGKREQITLPEQAKLLALVKHVQSKGYPNERFELLTNFPRRKLSHLDYDITLQEAGLCPQETVFVQERN
notes: human UBXN7, wild type; also called SBP-tagged version of UBXN7; homolog of Ubx5; source: E. coli BL21 CodonPlus (DE3) RIPL, purified (Ni-NTA, SEC); not shown: SBP, C-terminal, kept

What was measured:
Conditions in all cases: both partners purified
human p97 ATPase = biological target: T1, human p97 ATPase (human, UniProt P55072 1-806); experiment: pull-down; UBXN7-SBP on streptavidin agarose with p97, human UN, Yod1-C160S and Ub(n)-TAIL, 1 μM each, SEC buffer, 5 mM ATPγS, 1 h, 4°C, eluted with 2 mM biotin; Coomassie-blue staining
T1 construct: human p97 (VCP), wild type; pET28 with N-terminal His6-tag and a TEV-protease cleavage site; also called VCP; homolog of Cdc48; source: E. coli BL21 CodonPlus (DE3) RIPL, purified (Ni-NTA, SEC)
T1 sequence (P55072 whole entry): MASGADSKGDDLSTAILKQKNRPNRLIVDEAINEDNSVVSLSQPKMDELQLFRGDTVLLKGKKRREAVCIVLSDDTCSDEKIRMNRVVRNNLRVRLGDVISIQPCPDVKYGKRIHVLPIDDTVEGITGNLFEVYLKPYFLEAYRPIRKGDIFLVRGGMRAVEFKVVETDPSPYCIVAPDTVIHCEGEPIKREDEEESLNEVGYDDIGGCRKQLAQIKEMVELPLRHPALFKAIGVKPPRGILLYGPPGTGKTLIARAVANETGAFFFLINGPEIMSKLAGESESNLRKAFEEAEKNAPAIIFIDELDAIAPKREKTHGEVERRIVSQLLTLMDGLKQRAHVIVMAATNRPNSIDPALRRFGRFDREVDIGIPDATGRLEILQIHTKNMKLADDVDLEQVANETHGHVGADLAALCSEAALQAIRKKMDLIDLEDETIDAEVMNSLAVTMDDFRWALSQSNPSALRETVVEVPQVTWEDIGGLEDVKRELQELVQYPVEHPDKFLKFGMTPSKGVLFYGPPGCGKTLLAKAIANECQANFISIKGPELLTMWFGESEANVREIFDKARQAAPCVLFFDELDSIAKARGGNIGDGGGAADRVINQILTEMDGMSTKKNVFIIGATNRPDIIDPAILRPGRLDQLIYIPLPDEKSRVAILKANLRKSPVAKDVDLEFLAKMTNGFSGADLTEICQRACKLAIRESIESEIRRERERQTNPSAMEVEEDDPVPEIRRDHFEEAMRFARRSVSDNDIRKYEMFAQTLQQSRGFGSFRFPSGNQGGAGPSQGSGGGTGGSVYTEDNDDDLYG

human Npl4 = biological target: T2, human Npl4 (human, UniProt Q8TAT6 1-608); experiment: as above
T2 construct: human Npl4; Used as the human UN complex with hUfd1; also called hNpl4; Npl4 of the human UN complex; source: purified
T2 sequence (Q8TAT6 whole entry): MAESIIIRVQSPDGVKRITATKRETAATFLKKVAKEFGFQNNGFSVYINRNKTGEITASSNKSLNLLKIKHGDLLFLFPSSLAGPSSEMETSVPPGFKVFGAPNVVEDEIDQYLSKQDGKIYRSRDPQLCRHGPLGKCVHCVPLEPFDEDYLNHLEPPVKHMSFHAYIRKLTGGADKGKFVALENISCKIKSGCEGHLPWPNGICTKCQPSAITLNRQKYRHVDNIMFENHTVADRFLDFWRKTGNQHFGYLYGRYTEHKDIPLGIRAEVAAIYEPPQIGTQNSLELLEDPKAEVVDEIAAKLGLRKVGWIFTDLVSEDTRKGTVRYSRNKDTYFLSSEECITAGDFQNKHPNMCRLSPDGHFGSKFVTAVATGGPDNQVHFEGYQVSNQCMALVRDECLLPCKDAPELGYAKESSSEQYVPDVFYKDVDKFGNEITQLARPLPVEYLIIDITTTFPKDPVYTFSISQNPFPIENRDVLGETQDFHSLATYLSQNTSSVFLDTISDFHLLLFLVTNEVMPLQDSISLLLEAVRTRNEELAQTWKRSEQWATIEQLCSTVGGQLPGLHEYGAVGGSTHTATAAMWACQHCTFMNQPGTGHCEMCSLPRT

UBXN7-SBP = biological target: B1; experiment: as above
Cdc48 = biological target: T3, Cdc48 (yeast (S. cerevisiae), UniProt P25694 1-835); experiment: pull-down; Otu1-C120S-FLAG on anti-FLAG M2 agarose with Cdc48, UN and Ub(n)-TAIL, with or without Ubx5, 1 μM each, SEC buffer, 5 mM ATPγS, 1 h, 4°C; fluorescence scanning and Coomassie-blue staining
T3 construct: Cdc48 ATPase of yeast, wild type; pET28 with N-terminal His6-tag and a TEV-protease cleavage site; also called Cdc48 ATPase; wild-type (WT) Cdc48; source: E. coli BL21 CodonPlus (DE3) RIPL, purified (Ni-NTA, SEC)
T3 sequence (P25694 whole entry): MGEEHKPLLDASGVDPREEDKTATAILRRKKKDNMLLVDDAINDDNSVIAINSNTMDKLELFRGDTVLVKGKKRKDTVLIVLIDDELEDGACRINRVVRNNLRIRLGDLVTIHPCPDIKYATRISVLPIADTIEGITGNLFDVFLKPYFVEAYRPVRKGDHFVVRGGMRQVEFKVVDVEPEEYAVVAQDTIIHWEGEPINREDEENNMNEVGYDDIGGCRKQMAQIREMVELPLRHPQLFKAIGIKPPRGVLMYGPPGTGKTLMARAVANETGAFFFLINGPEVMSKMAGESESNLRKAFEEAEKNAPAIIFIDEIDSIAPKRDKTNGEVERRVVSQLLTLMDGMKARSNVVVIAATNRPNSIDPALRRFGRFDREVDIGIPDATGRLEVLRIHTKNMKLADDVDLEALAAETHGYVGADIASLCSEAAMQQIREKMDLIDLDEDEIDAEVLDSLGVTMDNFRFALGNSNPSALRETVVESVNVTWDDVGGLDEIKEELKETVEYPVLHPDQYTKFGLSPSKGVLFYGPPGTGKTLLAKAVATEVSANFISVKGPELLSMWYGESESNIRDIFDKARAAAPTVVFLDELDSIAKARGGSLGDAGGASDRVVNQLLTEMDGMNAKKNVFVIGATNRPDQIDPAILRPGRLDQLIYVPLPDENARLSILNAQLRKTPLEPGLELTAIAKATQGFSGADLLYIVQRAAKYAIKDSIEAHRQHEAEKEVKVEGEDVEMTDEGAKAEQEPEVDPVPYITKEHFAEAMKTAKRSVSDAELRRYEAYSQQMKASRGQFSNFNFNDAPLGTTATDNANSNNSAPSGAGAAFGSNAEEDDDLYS

Ufd1-Npl4 (UN) complex = biological target: T4, Ufd1-Npl4 (UN) complex (yeast (S. cerevisiae), UniProt P53044 1-361; P33755 1-580); experiment: as above
T4 construct: Ufd1 of yeast; Npl4 of yeast; The methods call the complex untagged; the plasmids are described as Ufd1 with an N-terminal His14-SUMO tag and Npl4 with a C-terminal His6 or FLAG-His6 tag; also called untagged Ufd1/Npl4 (UN) complex; source: bacterial expression
T4 sequence 1: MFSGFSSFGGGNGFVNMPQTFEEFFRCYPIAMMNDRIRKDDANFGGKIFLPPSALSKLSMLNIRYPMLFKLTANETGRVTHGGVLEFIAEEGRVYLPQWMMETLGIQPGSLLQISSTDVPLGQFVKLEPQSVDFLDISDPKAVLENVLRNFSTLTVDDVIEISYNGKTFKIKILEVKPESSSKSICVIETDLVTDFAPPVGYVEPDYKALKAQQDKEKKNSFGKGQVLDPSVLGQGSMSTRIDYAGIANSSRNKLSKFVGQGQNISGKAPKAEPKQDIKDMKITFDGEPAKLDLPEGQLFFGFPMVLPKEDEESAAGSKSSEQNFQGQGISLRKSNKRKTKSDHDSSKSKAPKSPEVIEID
T4 sequence 2: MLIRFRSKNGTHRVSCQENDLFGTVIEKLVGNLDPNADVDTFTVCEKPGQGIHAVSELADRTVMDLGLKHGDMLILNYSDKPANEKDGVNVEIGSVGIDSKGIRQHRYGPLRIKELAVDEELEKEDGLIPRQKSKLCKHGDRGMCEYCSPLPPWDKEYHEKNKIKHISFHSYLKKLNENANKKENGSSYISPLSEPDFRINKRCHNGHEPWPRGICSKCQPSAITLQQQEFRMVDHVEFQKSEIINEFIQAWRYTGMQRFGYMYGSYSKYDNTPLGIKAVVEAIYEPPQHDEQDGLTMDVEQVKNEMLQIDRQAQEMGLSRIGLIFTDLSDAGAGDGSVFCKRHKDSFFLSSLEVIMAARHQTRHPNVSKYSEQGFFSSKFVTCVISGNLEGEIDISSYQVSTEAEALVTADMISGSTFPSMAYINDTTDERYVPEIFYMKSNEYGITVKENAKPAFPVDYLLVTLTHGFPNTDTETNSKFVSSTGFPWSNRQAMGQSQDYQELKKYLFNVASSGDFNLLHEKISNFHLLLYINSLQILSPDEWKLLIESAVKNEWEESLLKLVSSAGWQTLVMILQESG

B1
binding result (human p97 ATPase): binds | binding result (human Npl4): binds

B2: Yod1-C160S (enzyme, human, UniProt Q5VVQ6 1-348, looked up)
chain: MFGPAKGRHFGVHPAPGFPGGVSQQAAGTKAGPAGAWPVGSRTDTMWRLRCKAKDGTHVLQGLSSRTRVRELQGQIAAITGIAPGGQRILVGYPPECLDLSNGDTILEDLPIQSGDMLIIEEDQTRPRSSPAFTKRGASSYVRETLPVLTRTVVPADNSSLFTSVYYVVEGGVLNPACAPEMRRLIAQIVASDPDFYSEAILGKTNQEYCDWIKRDDTWGGAIEISILSKFYQCEICVVDTQTVRIDRFGEDAGYTKRVLLIYDGIHYDPLQRNFPDPDTPPLTIFSSNDDIVLVQALELADEARRRRQFTDVNRFTLRCMVCQKGLTGQAEAREHAKETGHTNFGEV
notes: human deubiquitinating enzyme Yod1 with C160S; also called homolog of Otu1; source: E. coli BL21 CodonPlus (DE3) RIPL, purified (Ni-NTA, SEC)
binding result (UBXN7-SBP): binds

B3: Otu1-C120S-FLAG (enzyme, S. cerevisiae, UniProt P43558 1-301, looked up)
chain: MKLKVTGAGINQVVTLKQDATLNDLIEHINVDVKTMRFGYPPQRINLQGEDASLGQTQLDELGINSGEKITIESSDSNESFSLPPPQPKPKRVLKSTEMSIGGSGENVLSVHPVLDDNSSLFHAIAYGIFKQDSVRDLREMVSKEVLNNPVKFNDAILDKPNKDYAQWILKMESWGGAIEIGIISDALAVAIYVVDIDAVKIEKFNEDKFDNYILILFNGIHYDSLTMNEFKTVFNKNQPESDDVLTAALQLASNLKQTGYSFNTHKAQIKCNTCQMTFVGEREVARHAESTGHVDFGQNR
notes: deubiquitinating enzyme Otu1 of yeast with C120S; pET28: N-terminal His6-tag, TEV-protease cleavage site, then a FLAG tag; source: E. coli BL21 CodonPlus (DE3) RIPL, purified (Ni-NTA, SEC); not shown: FLAG, N-terminal, kept
binding result (Cdc48): binds | binding result (Ufd1-Npl4 (UN) complex): binds
